# Reference: the DeepSol protein solubility set
# Assay: soluble on expression in E. coli; label from the status in PepcDB or PDB records
row,Sequence,soluble on expression in E. coli
1,MRYTMDIEFSQIHEMVYMHDIVNSDSKKKPRIPLKKFLNAENVLTQTTSWTLNSRYVNVNSVNKVNVKSKVKNSYISRSVNDEFSLTDDEINSFKETLVLSSIDSLSKLVLNNPLSVLFTSTVRRNNNRAKMNVEFDSWICTRCCLEHHHHHH,soluble
2,GPGSMWVEAYRAGCAEVSADVREDVSSSGATGELIVRGNTFDNFKNRVTDTDVQAILAALRVCPGMSALYLPYNNITSEGGVLLGKALGHQLDSIITLDVQYNSLGAEAGVAIAQGLQRNDSLCHVTLAGNPLGGCCGAALGEALRQNMNLAVLDLFNTDLGMEALVHICRSLEGNKGLSSLNIGRPLLHGVDELESVVNHLSIALQRNSTLEELHMAYFGLVDDCLQTLVLALCGSAVTTLCIKGNKVSQDAGQLLARLLDRRQDFRNLDVSCNRLRDAGAAALAKGVAHHPQLESLGLESCTISERGLVVLVESLKSCATVRRLTLWGNDVTPAVASSLTATFCDLRELDYIDVGVMEQDGQLVAYRA,not soluble
3,FWMELQAVDSYQVKASGILTGADRKIITMLYQPLMGAECLALYQTLFTEVEENRLWSEAHSHVQLLNMLDISLKALFEARLKLEGLGLLKSYVKTENDQRFYIYEILPPLSPEKFFSDGLLNIYLYSKIGNAQFQRLRRFFADETFETDTYSEITRSFQDVFEPFKGGSSAVPSESSQVLVDKIVPKEIEFDDASFDFNLFLSLLSPGMIAREKITKEVRQTILKLHGIYQVSEKDMPSYLYRALDANGEIDIVYLRKIVREGYTIENGAPPKLQMKQETPGKKEPEEALNDEEALQVYLESITPFQLLVDISDGAIPAETDLRVVEEVMNQQNLPVPVMNVLIEYVLLRLDRKLSKNYMMTIAAHWKRKNVKTAKEAMDLAWQEHEKYKRLQEEPATPKNNNYNRNYQKSTRKEILPDWFDKEQVAPAENKMTDKEKQTLEEQVREIKERLNKR,not soluble
4,MGLFTTRQLLGYTEQKVKFRALFLELFFRRTVNFHTEEVMLDKITGKTPVAAYVSPVVEGKVLRHRGGETRVLRPGYVKPKHEFNYQQAVERLPGEDPAQLNGPAYRRLRIITDNLKQEEHAIVQVEEMQAVNAVLYGKYTMEGEQFETVEVDFGRSVGNNITQAGGTEWSAQDRDTFDPTHDLDAYCDFASGTINIAIMDGKVWRLLNGFKLFREKLDTRRGSNSQLETAVKDLGAVVSFKGYYGDLAIVVAKTSYVAEDGTEKRYLPDGTLVLGNTAAEGIRCYGAIQDAQALSEGVVASSRYPKHWLTVGDPAREFTMTQSAPLMVLPDPDEFVVVQVK,not soluble
5,MIKLENEVLLVEMKTAGAELTRIFHKDTGLEYLWNADSKFWGRHSPVLFPTVGRLVEDTYLVDGKPYHLGQHGFARDRDFQVVEQTEKSVRFELDADEDSLAVYPYKFKLSIIYTIEKNTVAVSYEVENTDNKRIYFSIGAHPAFNLPLTDGTTFEDYYLDFGTEENLETLCLEGPYRSGEIKKVVDEAARYLPLNYDLFKNDALIFEALKQKEMTIKSDKTPHFVKVSFPEFPFVGVWTAKAGTPFLCIEPWYGIADGAGESVELRDKAGIEHLEPEAVFASEYEITVGLEHHHHHH,soluble
6,MSLSAKSSLKEVAELAGVGYATASRALSGKGYVSPQTREKVQAAAKELNYVPNQLAKALREHRSALVGVIVPDLSNEYYSESLQTIQQDLKAAGYQMLVAEANSVQAQDVVMESLISIQAAGIIHVPVVGSIAPEGIPMVQLTRGELGPGFPRVLCDDEAGFFQLTESVLGGSGMNIAALVGEESLSTTQERMRGISHAASIYGAEVTFHFGHYSVESGEEMAQVVFNNGLPDALIVASPRLMAGVMRAFTRLNVRVPHDVVIGGYDDPEWYSFVGAGITTFVPPHEEMGKEAVRLLVDLIENPELPTGDVVLQGQVILRGSSTHEGHHHHHH,soluble
7,MSLKKFLKMFFPHDGIYEVLVGTSGIKPIIKPLGIIVEANELRSKIYKSTLTYSNLEKNNKCSIHVTLDTTFFILSMLDKLTFSIDSDYNVPVLKNLNVIYAECMKTSSTDPSIFTINPLDLEINSNLTRAYNRGDYISVDFLVNYTRLDIYKGEDLEKLVRILEYEWSVIKRTSQYTSSLLEEILNKMRSKGFKLDEGHHHHHH,not soluble
